Experiments:
Test in all cases: SPR
AML1 Runt domain [1] = target: T1, AML1 Runt domain (UniProt Q01196 1-188)
AML1 Runt domain [2] = target: T1, AML1 Runt domain; remark: listed apart in the source
AML1 Runt domain V170A = AML1 Runt domain V170A (UniProt Q01196 1-188, V170A)
Chain of AML1 Runt domain V170A (Q01196 1-188 V170A): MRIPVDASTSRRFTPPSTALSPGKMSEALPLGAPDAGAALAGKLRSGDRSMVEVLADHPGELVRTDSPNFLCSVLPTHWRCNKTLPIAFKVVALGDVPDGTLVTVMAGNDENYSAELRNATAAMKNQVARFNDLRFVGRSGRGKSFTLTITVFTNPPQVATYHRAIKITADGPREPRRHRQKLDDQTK

T1 sequence (Q01196 1-188): as the sequence (Q01196 1-188 V170A) above, with A170V counted along it

B1: Apt1-S double-stranded (1-18 / 19-37) (dsRNA)
RNA 1: GGGAUGGACGACCCACCA
RNA 2: CGGCGAGGUAUCCCAUCCC
Question: Which binding signal (AML1 Runt domain [1]) does the source give for B1 here?
Answer: ~20 fold reduction in affinity vs Apt1-S

B2: RDE (dsDNA)
DNA 1: GTCGTTTGCGGTTTGGGGAAAAAAAAAAAAAAAAA
DNA 2: TCCCCAAACCGCAAACGAC
Question: What does the source list for B2?
Answer: Kd (AML1 Runt domain [2]): 9.6 ± 0.2 nM; binding result (AML1 Runt domain V170A): binds

B3: Apt1-S (structured_RNA)
RNA: GGGAUGGACGACCCACCACGGCGAGGUAUCCCAUCCC
Question: How did the Kd (AML1 Runt domain [2]) turn out when B3 was run?
Answer: 0.99 ± 0.02 nM

Question: Does B3 bind (AML1 Runt domain V170A)?
Answer: binds

B4: Apt1-S GAAA loop (structured_RNA)
RNA: GGGAUGGACGACCCACGAAAGCGAGGUAUCCCAUCCC
Question: Does B4 bind (AML1 Runt domain [2])?
Answer: binds

B5: Apt1-S C12G-G26C (structured_RNA)
RNA: GGGAUGGACGAGCCACCACGGCGAGCUAUCCCAUCCC
Question: Does B5 bind (AML1 Runt domain [2])?
Answer: binds

B6: Apt1-S A24C (structured_RNA)
RNA: GGGAUGGACGACCCACCACGGCGCGGUAUCCCAUCCC
Question: Does B6 bind (AML1 Runt domain [2])?
Answer: binds

B7: Apt1-S A24U (structured_RNA)
RNA: GGGAUGGACGACCCACCACGGCGUGGUAUCCCAUCCC
Question: Does B7 bind (AML1 Runt domain [2])?
Answer: binds

B8: Apt1-S UUUU loop (structured_RNA)
RNA: GGGAUGGACGACCCACUUUUGCGAGGUAUCCCAUCCC
Question: Does B8 bind (AML1 Runt domain [2])?
Answer: binds

Source: publication PMC3683927
